Kd data for two molecules are collected here from article PMC5584141 (The Journal of Cell Biology, 2017).

First the molecules themselves.
B1: recombinant Ihh (ligand)
chain: not shown

Common to all, as to test: SPR
Background: SPR reads the build-up and loss of mass on a sensor chip optically.

One assay addresses T1, GPC6-AP fusion protein (UniProt Q9R087 24-530, carries glycosaminoglycan (GAG) chains; biotinylated with EZ-link Sulfo-NHS-LC biotin for SPR).
T1 sequence: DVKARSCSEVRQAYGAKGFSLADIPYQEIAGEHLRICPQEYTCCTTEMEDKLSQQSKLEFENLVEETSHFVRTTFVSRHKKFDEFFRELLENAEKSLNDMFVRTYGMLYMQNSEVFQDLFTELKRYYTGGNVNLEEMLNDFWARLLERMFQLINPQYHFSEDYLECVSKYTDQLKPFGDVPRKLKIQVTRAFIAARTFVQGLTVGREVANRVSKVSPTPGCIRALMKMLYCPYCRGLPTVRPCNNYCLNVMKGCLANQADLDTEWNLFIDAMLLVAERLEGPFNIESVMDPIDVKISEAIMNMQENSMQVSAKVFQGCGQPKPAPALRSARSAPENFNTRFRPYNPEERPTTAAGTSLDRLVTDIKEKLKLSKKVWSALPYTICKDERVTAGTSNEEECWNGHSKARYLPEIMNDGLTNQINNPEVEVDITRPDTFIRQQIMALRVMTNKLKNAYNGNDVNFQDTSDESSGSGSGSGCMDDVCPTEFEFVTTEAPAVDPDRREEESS

The target of another assay is recombinant Shh (UniProt Q62226 25-198).
For the assay “recombinant Ihh”, the target named is B1.

recombinant Ihh, sequence (P97812 28-202): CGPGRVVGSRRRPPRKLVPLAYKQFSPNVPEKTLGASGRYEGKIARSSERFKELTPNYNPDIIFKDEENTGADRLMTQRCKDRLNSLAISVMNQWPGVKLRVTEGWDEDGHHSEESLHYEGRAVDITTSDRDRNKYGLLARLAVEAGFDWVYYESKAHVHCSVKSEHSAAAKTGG
recombinant Shh, sequence (Q62226 25-198): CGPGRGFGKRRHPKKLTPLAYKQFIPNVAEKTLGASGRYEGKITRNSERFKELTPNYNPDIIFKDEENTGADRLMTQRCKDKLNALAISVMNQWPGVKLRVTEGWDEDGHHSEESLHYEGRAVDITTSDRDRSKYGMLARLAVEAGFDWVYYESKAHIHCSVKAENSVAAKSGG

Consider B1, for which, in the assay with GPC6-AP fusion protein, the affinity, expressed as Kd, was 14 nM.

B2: GPC6ΔGAG-AP fusion protein (natural protein)
chain: DVKARSCSEVRQAYGAKGFSLADIPYQEIAGEHLRICPQEYTCCTTEMEDKLSQQSKLEFENLVEETSHFVRTTFVSRHKKFDEFFRELLENAEKSLNDMFVRTYGMLYMQNSEVFQDLFTELKRYYTGGNVNLEEMLNDFWARLLERMFQLINPQYHFSEDYLECVSKYTDQLKPFGDVPRKLKIQVTRAFIAARTFVQGLTVGREVANRVSKVSPTPGCIRALMKMLYCPYCRGLPTVRPCNNYCLNVMKGCLANQADLDTEWNLFIDAMLLVAERLEGPFNIESVMDPIDVKISEAIMNMQENSMQVSAKVFQGCGQPKPAPALRSARSAPENFNTRFRPYNPEERPTTAAGTSLDRLVTDIKEKLKLSKKVWSALPYTICKDERVTAGTSNEEECWNGHSKARYLPEIMNDGLTNQINNPEVEVDITRPDTFIRQQIMALRVMTNKLKNAYNGNDVNFQDTSDESAGAGAGAGCMDDVCPTEFEFVTTEAPAVDPDRREEESS
modifications: biotinylated with EZ-link Sulfo-NHS-LC biotin for SPR
For B2, the Kd (in general, the constant that tells how readily two partners part at equilibrium) in the assay with recombinant Shh came to 21 nM; with recombinant Ihh, 16 nM.
